Molecular target: HLA-A*02:01 (Homo sapiens, UniProt P04439, D140Y/D185E/D98H/E176V/E277Q/G131W/G231S/I119V/I121R/I166T/I218V/L300P/L318F/N151K/N90K/P208A/P217A/Q86G/Q94H/R138H/R169H/T345S)
Assay: MHC binding assay (UV-ligand exchange, beta2m ELISA, peptide exchange yield)
Details: binding to HLA-A*02:01, β2m ELISA
Excerpt: Candidate peptides for T cell based therapies according to the present invention were further tested for their MHC binding capacity (affinity). The individual peptide-MHC complexes were produced by UV-ligand exchange, where a UV-sensitive peptide is cleaved upon UV-irradiation, and exchanged with the peptide of interest as analyzed. Only peptide candidates that can effectively bind and stabilize the peptide-receptive MHC molecules prevent dissociation of the MHC complexes. To determine the yield of the exchange reaction, an ELISA was performed based on the detection of the light chain (β2m) of stabilized MHC complexes. The assay was performed as generally described in Rodenko et al. (Rodenko et al., 2006).
96 well MAXISorp plates (NUNC) were coated over night with 2 ug/ml streptavidin in PBS at room temperature, washed 4× and blocked for 1 h at 37° C. in 2% BSA containing blocking buffer. Refolded HLA-A*02:01/MLA-001 monomers served as standards, covering the range of 15-500 ng/ml. Peptide-MHC monomers of the UV-exchange reaction were diluted 100 fold in blocking buffer. Samples were incubated for 1 h at 37° C., washed four times, incubated with 2 ug/ml HRP conjugated anti-β2m for 1 h at 37° C., washed again and detected with TMB solution that is stopped with […]. Absorption was measured at 450 nm. Candidate peptides that show a high exchange yield (preferably higher than 50%, most preferred higher than 75%) are generally preferred for a generation and production of antibodies or fragments thereof, and/or T cell receptors or fragments thereof, as they show sufficient avidity to the MHC molecules and prevent dissociation of the MHC complexes.

Row | Substance | Peptide exchange (MHC class I binding score, peptide exchange yield)
1 | 3 (RLIPDTLYSV; listed as Homo sapiens) [compound 3] | “++++” (≥75% = ++++)
2 | 29 (QMLDVAIRV; listed as Homo sapiens) [compound 29] | “+++” (≥50 = +++)
3 | 60 (VLDEDEPRFL; listed as Homo sapiens) [compound 60] | “++” (≥20% = ++)
4 | 30 (GLSSAYGGL; listed as Homo sapiens) [compound 30] | “+” (≥10% = +)
5 | 5 (WLFDDGGLTL; listed as Homo sapiens) [compound 5] | “++++” (≥75% = ++++)
6 | 82 (QLYEEPDTKL; listed as Homo sapiens) [compound 82] | “++” (≥20% = ++)
7 | 23 (FLDANGHFV; listed as Homo sapiens) [compound 23] | “+++” (≥50 = +++)
8 | 91 (TVDVATPSV; listed as Homo sapiens) [compound 91] | “+++” (≥50 = +++)
9 | 69 (GMLNEAEGKAIKL; listed as Homo sapiens) [compound 69] | “++” (≥20% = ++)
10 | 88 (KLDIKVETV; listed as Homo sapiens) [compound 88] | “++++” (≥75% = ++++)
11 | 4 (RLAELTVDEFL; listed as Homo sapiens) [compound 4] | “+++” (≥50 = +++)
12 | 31 (LLYGKYVSV; listed as Homo sapiens) [compound 31] | “+++” (≥50 = +++)
13 | 97 (ALWWGVVTV; listed as Homo sapiens) [compound 97] | “++” (≥20% = ++)
14 | 54 (ALLNGEYLLAA; listed as Homo sapiens) [compound 54] | “+++” (≥50 = +++)
15 | 77 (SLLKRDFGA; listed as Homo sapiens) [compound 77] | “++” (≥20% = ++)
16 | 45 (ALAELLHGA; listed as Homo sapiens) [compound 45] | “+++” (≥50 = +++)
17 | 46 (GLDDRYSLV; listed as Homo sapiens) [compound 46] | “+++” (≥50 = +++)
18 | 53 (FLLGSEIKL; listed as Homo sapiens) [compound 53] | “+++” (≥50 = +++)
19 | 79 (SLAADQLLKL; listed as Homo sapiens) [compound 79] | “++” (≥20% = ++)
20 | 22 (GLIDEVMVL; listed as Homo sapiens) [compound 22] | “+++” (≥50 = +++)
21 | 83 (LTIEDGIFEV; listed as Homo sapiens) [compound 83] | “+++” (≥50 = +++)
22 | 89 (SLIEYEFRV; listed as Homo sapiens) [compound 89] | “+++” (≥50 = +++)
23 | 62 (YLAPENGYL; listed as Homo sapiens) [compound 62] | “++” (≥20% = ++)
24 | 67 (SLNDLEKDVMLL; listed as Homo sapiens) [compound 67] | “+++” (≥50 = +++)
25 | 26 (GLASKENFSNVSL; listed as Homo sapiens) [compound 26] | “++” (≥20% = ++)
26 | 6 (FLAELPGSLSL; listed as Homo sapiens) [compound 6] | “+++” (≥50 = +++)
27 | 43 (TLDAAQPRV; listed as Homo sapiens) [compound 43] | “++” (≥20% = ++)
28 | 95 (AILDAHIEV; listed as Homo sapiens) [compound 95] | “++++” (≥75% = ++++)
29 | 57 (NLLEKENYL; listed as Homo sapiens) [compound 57] | “+++” (≥50 = +++)

Next, values leading:

Row | Peptide exchange (MHC class I binding score, peptide exchange yield) | Substance
30 | “+++” (≥50 = +++) | 99 (KLLEVDLDTV; listed as Homo sapiens) [compound 99]
31 | “++” (≥20% = ++) | 178 (YLFREPATI; listed as Homo sapiens) [compound 178]
32 | “+++” (≥50 = +++) | 190 (AMAEMVLQV; listed as Homo sapiens) [compound 190]
33 | “++” (≥20% = ++) | 120 (VLYEGVDEV; listed as Homo sapiens) [compound 120]
34 | “+++” (≥50 = +++) | 186 (KMSEKILLL; listed as Homo sapiens) [compound 186]
35 | “+++” (≥50 = +++) | 185 (VLYTGVVRV; listed as Homo sapiens) [compound 185]
36 | “+++” (≥50 = +++) | 108 (SLAELVPGVGGI; listed as Homo sapiens) [compound 108]
37 | “++++” (≥75% = ++++) | 174 (ILLDDNMQIRL; listed as Homo sapiens) [compound 174]
38 | “++” (≥20% = ++) | 117 (TLQPVDNSTISL; listed as Homo sapiens) [compound 117]
39 | “+++” (≥50 = +++) | 166 (GLLEARGILGL; listed as Homo sapiens) [compound 166]
40 | “++++” (≥75% = ++++) | 165 (RLLDFPEAMVL; listed as Homo sapiens) [compound 165]
41 | “+++” (≥50 = +++) | 151 (SAQGSDVSLTACKV; listed as Homo sapiens) [compound 151]
42 | “+++” (≥50 = +++) | 121 (SLAPNIISQL; listed as Homo sapiens) [compound 121]
43 | “++++” (≥75% = ++++) | 182 (SLNKWIFTV; listed as Homo sapiens) [compound 182]
44 | “++” (≥20% = ++) | 98 (AMNGKSFSV; listed as Homo sapiens) [compound 98]
45 | “+++” (≥50 = +++) | 183 (TLQEVVTGV; listed as Homo sapiens) [compound 183]

Row | Peptide exchange (MHC class I binding score, peptide exchange yield) | Substance
46 | “+++” (≥50 = +++) | 172 (LLLDTVTMQV; listed as Homo sapiens) [compound 172]
47 | “++” (≥20% = ++) | 171 (RLQETEGMVAV; listed as Homo sapiens) [compound 171]
48 | “++” (≥20% = ++) | 103 (FLFGYPKRL; listed as Homo sapiens) [compound 103]
49 | “++” (≥20% = ++) | 146 (ALSDETWGL; listed as Homo sapiens) [compound 146]
50 | “+++” (≥50 = +++) | 163 (RLLHEVQEL; listed as Homo sapiens) [compound 163]
51 | “++” (≥20% = ++) | 112 (KLGQVLIYL; listed as Homo sapiens) [compound 112]
52 | “+++” (≥50 = +++) | 177 (ALLQGAIESV; listed as Homo sapiens) [compound 177]
53 | “+++” (≥50 = +++) | 173 (KLGDLMVLL; listed as Homo sapiens) [compound 173]
54 | “++++” (≥75% = ++++) | 156 (SLMMTIINL; listed as Homo sapiens) [compound 156]
55 | “+++” (≥50 = +++) | 126 (TLAKYLMEL; listed as Homo sapiens) [compound 126]
56 | “+++” (≥50 = +++) | 122 (SLMGMVLKL; listed as Homo sapiens) [compound 122]
57 | “+++” (≥50 = +++) | 105 (YALDLSTFL; listed as Homo sapiens) [compound 105]
58 | “+++” (≥50 = +++) | 107 (ALLGGGPYML; listed as Homo sapiens) [compound 107]
59 | “+++” (≥50 = +++) | 115 (SLFDVSHML; listed as Homo sapiens) [compound 115]
60 | “+++” (≥50 = +++) | 155 (RLLGEEVVRV; listed as Homo sapiens) [compound 155]
61 | “++” (≥20% = ++) | 135 (KLQEEIPVL; listed as Homo sapiens) [compound 135]
